According to US20230250168A1 (MABWELL SHANGHAI BIOSCIENCE, published 2023):

How the values were obtained:
[1] = biological target: T1, human CLDN18.2 expressed on cell surfaces (human, UniProt P56856-2 1-261); test: cell-based or functional assay
[2] = biological target: T1, human CLDN18.2 expressed on cell …; test: cell-based or functional assay; remark: listed apart in the source
[3] = biological target: T2, antigen human CLDN18.2, His-tagged (human, UniProt P56856-2 1-261, limits assumed); test: SPR (BIAcore), antibody captured by anti-human Fc, antigen as analyte
T2 construct: Recombinant antigen used in the Fortebio assay (His-tagged, captured on NTA probe); also called His-tagged antigen; not shown: His tag
Procedure: Referring to the instructions provided in the Human Antibody Capture Kit (cat No. BR-1008-39, Lot 10261753) from GE Healthcare, the analytical channel and the control sample channel on a CM5 sensor chip were first saturated and coupled with the maximum amount of anti-human Fc antibody, then buffers containing anti-human CLDN18.2 chimeric antibodies, humanized antibodies or a control antibody IMAB362 at 7.5 μg/ml were allowed to flow through the analytical channel and uniformly distribute. Finally, antigen samples diluted in gradient (the initial concentration was 20 nM and diluted by 1:3 to get 8 concentrations, and the concentration 0.741 nM was set to be repeated) were allowed to flow through both the analytical channel and the sample channel, and the photoreactions upon the binding of antibody to antigen were measured. Subsequently, the association constant Kon and dissociation constant Koff and affinity constant KD of each antibody were finally obtained by instrument software fitting analysis.

[4] = biological target: T1, human CLDN18.2 expressed on cell …; test: flow cytometry on CHOK1 cells expressing human CLDN18.2, goat anti-human IgG secondary, normalised MFI
Procedure: The chimeric anti-human CLDN18.2 antibodies were diluted 2-fold in gradient from an initial concentration of 100 nM and solutions of each antibody of 16 concentrations were obtained. 10 μl of the solutions of each antibody of each concentration was added to a 384-well plate. CHOK1 cells expressing CLDN18.2 on the cell surface were collected by centrifugation for 5 min at 100 g at room temperature, and the cells were washed with PBS containing 0.5% BSA once and then were centrifuged for 5 min at 100 g at room temperature. The cells were resuspended at a density of about 2×10⁶ cells/ml, and 10 μl was added to each well of the 384-well plate to which the antibody had been added. After incubation for 1 hour at 4° C., fluorescently labeled secondary goat anti-human IgG antibody was added. After continued incubation for 1 hour at 4° C., the mean fluorescence readings of the cell populations were analyzed by a flow cytometer.

[5] = biological target: T1, human CLDN18.2 expressed on cell …; test: FACS of hybridoma supernatants on CHOK1 cells
Procedure: Balb/c mice were immunized with CHOK1 cells stably expressing human CLDN18.2 protein on cell surfaces. One month later, sera from the mice were analyzed by flow cytometry (FACS), and spleens were taken from mice having high antibody titers in sera. The spleen cells isolated by standard methods were fused with myeloma cells P3X63Ag8.653 using PEG or electrofusion methods. The fused hybridoma cells were seeded in 384 well plates, and after 10-14 days of culture, supernatants obtained were analyzed by FACS for antibody secretion by the hybridoma cells. Several clones were obtained that were able to bind to CHOK1 cells stably expressing human CLDN18.2 protein on cell surfaces and were not able to bind to CHOK1 cells stably expressing human CLDN18.1 protein on cell surfaces. Single cells of the obtained clones were obtained by Limiting Dilution, and each of the monoclonal hybridoma cell clones obtained after being diluted three times secreted only one antibody.

[6] = biological target: T2, antigen human CLDN18.2, His-tagged; test: BLI (Fortebio), His-tagged antigen on NTA probe, 100 nM antibody, 1:1 fit
Procedure: The binding kinetic parameters of the chimeric antibodies and the humanized antibodies thereof to the antigen human CLDN18.2 were analyzed by a Fortebio (BLITZ pro1.1.0.28) instrument. Before performing the assay, an NTA bioprobe was soaked in PBS for 10 min, and the probe was then placed in PBS containing 100 nM antigen for 300 s to capture the His-tagged antigen. The probe was further subjected to a binding reaction with 100 nM antibody for a binding time of 400 s, and the probe was then transferred to PBS and subjected to a dissociation reaction for 600 s. When the assay was finished, data from which the response value of a blank control had been deducted were fitted to a 1:1 Langmuir binding model using software, and then the kinetic constants for antigen-antibody binding were calculated.

B1: IMAB362 (antibody, human IgG1, kappa, V domains shown)
VH: QVQLQQPGAELVRPGASVKLSCKASGYTFTSYWINWVKQRPGQGLEWIGNIYPSDSYTNYNQKFKDKATLTVDKSSSTAYMQLSSPTSEDSAVYYCTRSWRGNSFDYWGQGTTLTVSS
VL: DIVMTQSPSSLTVTAGEKVTMSCKSSQSLLNSGNQKNYLTWYQQKPGQPPKLLIYWASTRESGVPDRFTGSGSGTDFTLTISSVQAEDLAVYYCQNDYSYPFTFGSGTKLEIKR
notes: Chimeric anti-CLDN18.2 antibody of Ganymed, used as control; also called control antibody IMAB362
CDC EC50, BxPC3 cells stably expressing human CLDN18.2 (CCK-8) [1]: 52.2 nM
CDC EC50, CHOK1 cells stably expressing human CLDN18.2 (CCK-8) [1]: 30.4 nM
CDC EC50, NCI-N87 cells stably expressing human CLDN18.2 (CCK-8) [1]: 474 nM
ADCC reporter EC50 (Jurkat NFAT-luciferase effector cells), BxPC3 target cells [2]: 0.106 nM
ADCC reporter EC50 (Jurkat NFAT-luciferase effector cells), CHOK1 target cells [2]: 0.593 nM
ADCC reporter EC50 (Jurkat NFAT-luciferase effector cells), NCI-N87 target cells [2]: 0.0909 nM
Kd [3]: 136 nM
koff [3]: 0.201 s⁻¹
kon [3]: 1.48e+06 M⁻¹ s⁻¹

B2: 48G12-xiIgG (antibody, V domains shown)
VH: EVQLRQSGPELVKPGASVKMSCKASGYTFTTYIINWVKQKPGQGLEWIGYINPYNDDTRYNERVKGKATLTSDKSSSTAYMELSSLTSEDSAVYYCARFYFGNSFTYWGQGTLVTVSA
VL: DIVMTQSPSSLPVTVGERVTMTCKSSQGLFNSGNQRNYLTWYQQKPGQPPKLLIYWASTRESGVPDRFTGSGSGTDFTLTISSVQAEDLAIYYCQNNYIYPLTFGAGTKLELKR
notes: murine variable regions on human IgG1 / kappa constant regions; also called 48G12 chimeric antibody
binding result [4]: binds

B3: 50C14-xiIgG (antibody, V domains shown)
VH: EVQLRQSGPELVKPGASVKMSCKASGYTFTTYIINWVKQKPGQGLEWIGYINPYNDGTRYNERVKGKATLTSDKSSSTAYMELSSLTSEDSAVYYCARFHFGNSFTYWGQGTLVTVSA
VL: DIVMTQSPSSLPVTTGEKVTMTCKSSQGLFNNGNQRNYLTWYQQKPGQPPKLLIYWASTRESGVPDRFIGSGSGTDFTLTISSVQAEDLAIYYCQNNYIFPLTFGAGTKLELKR
notes: murine variable regions on human IgG1 / kappa constant regions; also called 50C14 chimeric antibody
binding result [4]: binds

B4: 43L6-xiIgG (antibody, V domains shown)
VH: QVQLKESGPDLVAPSQSLSLTCSVSGFSLTSYGIHWVRQPPGKGLEWLVVIWSDGRTTYNSGLKSRLSISKDNSKSQVLLKMNSLRTDDTAIYYCVRHPAFGPHAMDYWGQGTSVTVSS
VL: DIVMTQAAPSVPVTPGESVSISCRSSKSLLNSNGNTYLYWFLQRPGQSPQLLIYRMSNLASGVPDRFSGSGSGTDFTLRISRVEAGDVGVYYCMQYLEYPVTFGAGTKLELKR
notes: murine variable regions on human IgG1 / kappa constant regions; also called 43L6 chimeric antibody
binding result [4]: binds

B5: 20L17-xiIgG (antibody, V domains shown)
VH: DVQLVESGGGLVQPGGSRKLSCAASGFTFSSFGMHWVRQAPEKGLEWVAYISSGSSTIYYPDTVKGRFTVSRDNPKNTLFLQMTSLRSEDTAMYYCVRLGPRGNVMDHWGQGTSVTVSS
VL: DIVMTQSPSSLTVTAGEKVTMSCKSSQSLLNSGNQRNYLTWYQQKPGQPPKLLIYWASTRESGVPDRFTGSGSGTDFTLTISSVQAEDLAVYYCQNVYFYPLTFGTGTKLELRR
notes: murine variable regions on human IgG1 / kappa constant regions; also called 20L17 chimeric antibody
binding result [4]: binds

B6: 43B5-xiIgG (antibody, V domains shown)
VH: DVQLQESGPDLVKPSQSLSLTCTVSGYSISGAYNWHWIRQFPGNKLEWLAYMQYSGSSNYNPSFKSRISISRDTSKNQFFLQLKSVTTEDTATYYCARMYNGNSFLYWGQGTLVTVSA
VL: DIVMTQSPSSLTVTAGEKVTMNCKSSQSLFNSGNQKNYLTWYQQKPGQPPRLLIYWASTRESGVPDRFTGSGSGTDFTLTISSVQAEDLSLYYCQNSYSYPLTFGAGTKLELKR
notes: murine variable regions on human IgG1 / kappa constant regions; also called 43B5 chimeric antibody
EC50 (read off the curve) [4]: ~1 nM

B7: 46J05-xiIgG (antibody, V domains shown)
VH: DVQLVESGGGLVQPGGSRKLSCAASGFTFSRFGMHWVRQAPKKGLEWVAYISSGSNTIYYADTVKGRFTISRDNPKNTLFLQTTSLRSEDTAIYYCGRLGFYGNSFDHWGQGTLVTVSA
VL: NILMTQSPSSLTVTAGEKVTMNCKSSQSLLNGGNQRNYLTWYQQKAGQPPKLLIYWASTRESGVPDRFTGGGSGTDFTLTISSVQAEDLALYYCQNSYYYPLTFGAGTKLELKR
notes: murine variable regions on human IgG1 / kappa constant regions; also called 46J05 chimeric antibody
binding result [4]: binds

B8: murine antibody 20L17 (antibody, V domains shown)
VH: DVQLVESGGGLVQPGGSRKLSCAASGFTFSSFGMHWVRQAPEKGLEWVAYISSGSSTIYYPDTVKGRFTVSRDNPKNTLFLQMTSLRSEDTAMYYCVRLGPRGNVMDHWGQGTSVTVSS
VL: DIVMTQSPSSLTVTAGEKVTMSCKSSQSLLNSGNQRNYLTWYQQKPGQPPKLLIYWASTRESGVPDRFTGSGSGTDFTLTISSVQAEDLAVYYCQNVYFYPLTFGTGTKLELR
notes: Mouse hybridoma antibody (supernatant)
binding result [5]: binds

B9: 11M23-xiIgG (antibody, V domains shown)
VH: QVQLKESGPDLVAPSQSLSITCTVSGFSLTNYGVHWVRQPPGKGLEWLVVIWSDGRINYNSALKSRLSITKDNSKRQVFLKMNSLQIDDTAIYYCVRHPAFGPHAMDYWGQGISVTVSS
VL: DIVMTQDAPSIPVTPGESVSISCRSSKSLLNSNGNTYLYWFLQRPGQSPHLLLYRMSNPASGAPDRFSGSGSGTEFTLRISRVEAEDVGVYYCMQYLEYPPTFGAGTRLELKR
notes: Murine variable regions on human IgG1 / kappa constant regions; also called 11M23 chimeric antibody
Kd [6]: 0.293 nM
Response [6]: 0.184
koff [6]: 0.000107 s⁻¹
kon [6]: 366000 M⁻¹ s⁻¹

B10: 11M23-hz00 (antibody, human IgG1, V domains shown)
VH: QVQLVESGGGVVQPGRSLRLSCAASGFSLTNYGVHWVRQAPGKGLEWVAVIWSDGRINYNSALKSRFTISRDNSKNTLYLQMNSLRAEDTAVYYCARHPAFGPHAMDYWGQGTLVTVSS
VL: DIVMTQSPLSLPVTPGEPASISCRSSKSLLNSNGNTYLYWYLQKPGQSPQLLIYRMSNPASGVPDRFSGSGSGTDFTLKISRVEAEDVGVYYCMQYLEYPPTFGAGTKLEIK
notes: Humanized (direct CDR graft)
Kd [6]: 1.49 nM
Response [6]: 0.164
koff [6]: 0.000324 s⁻¹
kon [6]: 218000 M⁻¹ s⁻¹

B11: 11M23-hz11 (antibody, V domains shown)
VH: QVQLVESGGGVVQPGRSLRLSCAASGFSLTNYGVHWVRQAPGKGLEWVAVIWSDGRINYNSALKSRFTISKDNSKNTLYLQMNSLRAEDTAVYYCARHPAFGPHAMDYWGQGTLVTVSS
VL: DIVMTQSPLSLPVTPGEPASISCRSSKSLLNSNGNTYLYWFLQKPGQSPQLLIYRMSNPASGVPDRFSGSGSGTDFTLKISRVEAEDVGVYYCMQYLEYPPTFGAGTKLEIK
Kd [6]: 1.29 nM
Response [6]: 0.174
koff [6]: 0.00046 s⁻¹
kon [6]: 356000 M⁻¹ s⁻¹

B12: 11M23-hz22 (antibody, V domains shown)
VH: QVQLVESGGGVVQPGRSLRLSCAASGFSLTNYGVHWVRQAPGKGLEWVAVIWSEGRINYQSALKSRFTISKDNSKNTLYLQMNSLRAEDTAVYYCARHPAFGPHAMDYWGQGTLVTVSS
VL: DIVMTQSPLSLPVTPGEPASISCRSSKSLLSSSGNTYLYWFLQKPGQSPQLLIYRMSNPASGVPDRFSGSGSGTDFTLKISRVEAEDVGVYYCMQYLEYPPTFGAGTKLEIK
Kd [6]: 2.92 nM
Response [6]: 0.136
koff [6]: 0.00195 s⁻¹
kon [6]: 670000 M⁻¹ s⁻¹

B13: murine antibody 43L6 (antibody, V domains shown)
VH: QVQLKESGPDLVAPSQSLSLTCSVSGFSLTSYGIHWVRQPPGKGLEWLVVIWSDGRTTYNSGLKSRLSISKDNSKSQVLLKMNSLRTDDTAIYYCVRHPAFGPHAMDYWGQGTSVTVSS
VL: DIVMTQAAPSVPVTPGESVSISCRSSKSLLNSNGNTYLYWFLQRPGQSPQLLIYRMSNLASGVPDRFSGSGSGTDFTLRISRVEAGDVGVYYCMQYLEYPVTFGAGTKLELK
notes: as for B8
binding result [5]: binds

B14: murine antibody 46J05 (antibody, V domains shown)
VH: DVQLVESGGGLVQPGGSRKLSCAASGFTFSRFGMHWVRQAPKKGLEWVAYISSGSNTIYYADTVKGRFTISRDNPKNTLFLQTTSLRSEDTAIYYCGRLGFYGNSFDHWGQGTLVTVSA
VL: NILMTQSPSSLTVTAGEKVTMNCKSSQSLLNGGNQRNYLTWYQQKAGQPPKLLIYWASTRESGVPDRFTGGGSGTDFTLTISSVQAEDLALYYCQNSYYYPLTFGAGTKLELK
notes: as for B8
binding result [5]: binds
